# ± gives the standard deviation of the averaged measurements.
# Tested on: Saccharomyces cerevisiae
# Assay: protein stability index of tFT-peptide fusion (C-terminal peptide) (PSI (0-1 scale)); higher = more stable (slower turnover)
# Details: genetic background: cdc34-1; temperature: 37 C
# Method: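 MPS profiling in S. cerevisiae of the tFT-X12 degron library: putative degron peptides plus stable controls, 12 aa, fused to the C-terminus of a sfGFP-mCherry timer. Cells are FACS-sorted into 8 mCherry/sfGFP bins and deep-sequenced. PSI runs from 0 (unstable) to 1 (stable). Backgrounds are wild type, das1Δ and doa10Δ at 30 °C, and wild type, das1Δ, cdc34-1 and cdc53-1 at 37 °C; 2-3 technical replicates each.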
# 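Also: PSI is a weighted mean of sequencing reads over stability bins, variants kept only with over 10 reads, mCherry proximal and sfGFP distal, peptide attached via GGGS linker.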
row,Sequence,protein stability index
1,RIYIRVSLIAPR,0.523 ± 0.026
2,RLFMVLYRRFVL,0.67 ± 0.052
3,RLVWGGLEMFVC,0.511 ± 0.024
4,RPALVSIFLSAY,0.555 ± 0.018
5,RPLRRPRLPLLL,0.654 ± 0.014
6,RQFRNPLYAFVC,0.496 ± 0.043
7,RQRQLAKKQKNA,0.601 ± 0.043
8,RRFKINKKNKKF,0.683 ± 0.028
9,RRWGFRSFLVGI,0.728 ± 0.018
10,RSGGVPGFGRLC,0.703 ± 0.033
11,RSLRLFGCLGSL,0.756 ± 0.029
12,RSWMRHVLRVAS,0.543 ± 0.048
13,RVDEVVKKLRTL,0.62 ± 0.027
14,RVHYELEQIVIK,0.632 ± 0.1
15,RVSVNDGRRDSV,0.712 ± 0.046
16,RWFPPPQYLRLV,0.567 ± 0.021
17,RYEKIIKQINKQ,0.609 ± 0.062
18,RYSVIRWMLIVC,0.0413 ± 0.012
19,SALLLWAISIIC,0.0476 ± 0.0084
20,SCDMIVTLIQIR,0.5 ± 0.047

row,Sequence,protein stability index
1,SCICTSCLVLVL,0.5223 ± 0.0033
2,SCPEFNIRVRNG,0.641 ± 0.033
3,SCSHYRLICSRL,0.9109 ± 0.0012
4,SDVHLKSEALAA,0.682 ± 0.024
5,SFFLIISFFVRV,0.2341 ± 0.0015
6,SFFSFLLLRVPC,0.119 ± 0.022
7,SFGSMIITYAWG,0.616 ± 0.011
8,SFWLGVGIFFVG,0.544 ± 0.038
9,SFYVWILLWSYY,0.26 ± 0.0071
10,SGGRFVLFIIAV,0.444 ± 0.012
11,SGVHWFRGNSWG,0.697 ± 0.00077
12,SHGKDVLNKINS,0.608 ± 0.019
13,SHTRPPVTAPLH,0.689 ± 0.026
14,SIFSIFFLVRNF,0.4535 ± 0.0038
15,SIFSIRRQISFS,0.662 ± 0.0077
16,SILVLGRSVGVG,0.436 ± 0.026
17,SIQMNCILLLVI,0.211 ± 0.041
18,SKPFPRHIFSLH,0.674 ± 0.022
19,SLCWSYVWVSCP,0.264 ± 0.035
20,SLFERLSPVLCF,0.249 ± 0.037

row,Sequence,protein stability index
1,SLFVLLVSALLH,0.173 ± 0.029
2,SLGRYVSFLFVV,0.433 ± 0.02
3,SLLSELILVGVS,0.394 ± 0.0081
4,SLLWLYSAFVWY,0.302 ± 0.012
5,SLRCILISTRVK,0.541 ± 0.02
6,SLVFCYSLFVFI,0.342 ± 0.08
7,SLYSFRCFFVLF,0.35 ± 0.027
8,SPKFMCSLSCWW,0.714 ± 0.026
9,SPLLLIIFRSLC,0.505 ± 0.096
10,SREPPTSTSSRH,0.6388 ± 0.0031
11,SRFPARCLLCCW,0.531 ± 0.029
12,SRMIPSAFLLVI,0.589 ± 0.016
13,SSAQKVMELQIV,0.664 ± 0.011
14,SSLGILHWRLHS,0.587 ± 0.038
15,SVAWFIYVARSI,0.529 ± 0.023
16,SVCCSLLAVASP,0.311 ± 0.035
17,SVFFALFLRCTP,0.26 ± 0.058
18,SVGVVWVLSVEG,0.444 ± 0.042
19,SVTFVVYFISGG,0.522 ± 0.025
20,SWAILFVLEGFK,0.4673 ± 0.0029

# Same assay, conditions: genetic background: cdc53-1; temperature: 37 C
row,Sequence,protein stability index
1,RIYIRVSLIAPR,0.59 ± 0.05
2,RLFMVLYRRFVL,0.72 ± 0.013
3,RLVWGGLEMFVC,0.627 ± 0.013
4,RPALVSIFLSAY,0.567 ± 0.023
5,RPLRRPRLPLLL,0.698 ± 0.025
6,RQFRNPLYAFVC,0.687 ± 0.011
7,RQRQLAKKQKNA,0.7044 ± 0.0043
8,RRFKINKKNKKF,0.749 ± 0.035
9,RRWGFRSFLVGI,0.7869 ± 0.0035
10,RSGGVPGFGRLC,0.7361 ± 0.0064
11,RSLRLFGCLGSL,0.762 ± 0.027
12,RSWMRHVLRVAS,0.701 ± 0.0072
13,RVDEVVKKLRTL,0.665 ± 0.047
14,RVHYELEQIVIK,0.699 ± 0.019
15,RVSVNDGRRDSV,0.723 ± 0.016
16,RWFPPPQYLRLV,0.648 ± 0.014
17,RYEKIIKQINKQ,0.738 ± 0.015
18,RYSVIRWMLIVC,0.0475 ± 0.01
19,SALLLWAISIIC,0.117 ± 0.055
20,SCDMIVTLIQIR,0.53 ± 0.022

row,Sequence,protein stability index
1,SCICTSCLVLVL,0.509 ± 0.024
2,SCPEFNIRVRNG,0.669 ± 0.047
3,SCSHYRLICSRL,0.92 ± 0.015
4,SDVHLKSEALAA,0.69 ± 0.0095
5,SFFLIISFFVRV,0.394 ± 0.051
6,SFFSFLLLRVPC,0.144 ± 0.019
7,SFGSMIITYAWG,0.623 ± 0.0089
8,SFWLGVGIFFVG,0.597 ± 0.022
9,SFYVWILLWSYY,0.256 ± 0.012
10,SGGRFVLFIIAV,0.538 ± 0.048
11,SGVHWFRGNSWG,0.749 ± 0.012
12,SHGKDVLNKINS,0.763 ± 0.045
13,SHTRPPVTAPLH,0.7142 ± 0.0027
14,SIFSIFFLVRNF,0.551 ± 0.029
15,SIFSIRRQISFS,0.743 ± 0.009
16,SILVLGRSVGVG,0.4817 ± 0.00055
17,SIQMNCILLLVI,0.224 ± 0.021
18,SKPFPRHIFSLH,0.737 ± 0.027
19,SLCWSYVWVSCP,0.302 ± 0.007
20,SLFERLSPVLCF,0.2784 ± 0.0027

row,Sequence,protein stability index
1,SLFVLLVSALLH,0.32 ± 0.025
2,SLGRYVSFLFVV,0.6623 ± 0.0014
3,SLLSELILVGVS,0.409 ± 0.0044
4,SLLWLYSAFVWY,0.409 ± 0.011
5,SLRCILISTRVK,0.601 ± 0.054
6,SLVFCYSLFVFI,0.464 ± 0.0058
7,SLYSFRCFFVLF,0.461 ± 0.022
8,SPKFMCSLSCWW,0.77647 ± 0.00063
9,SPLLLIIFRSLC,0.558 ± 0.0093
10,SREPPTSTSSRH,0.709 ± 0.032
11,SRFPARCLLCCW,0.52 ± 0.021
12,SRMIPSAFLLVI,0.64 ± 0.012
13,SSAQKVMELQIV,0.7179 ± 0.0062
14,SSLGILHWRLHS,0.709 ± 0.019
15,SVAWFIYVARSI,0.543 ± 0.072
16,SVCCSLLAVASP,0.355 ± 0.016
17,SVFFALFLRCTP,0.229 ± 0.055
18,SVGVVWVLSVEG,0.517 ± 0.015
19,SVTFVVYFISGG,0.608 ± 0.023
20,SWAILFVLEGFK,0.548 ± 0.058

# Reference: the supplement of paper PMC10724198
